This passage reports Kd results from patent US20150056162A1.

What is called pKd is the negative decadic logarithm of the Kd, by convention in mol/L. High values mean a small Kd, low ones a large Kd.

pKd: −log10 of the molar value.

The target in assay [1] is IL-13Rα1 ectodomain (amino acids 1-310), biotinylated (human) (UniProt P78552). Description: SPR; equilibrium. Particulars: ligand.
Assay [2] shares this target. Description: SPR; kinetic. To be noted: ligand. A general note: Surface plasmon resonance follows binding to a sensor surface in real time, without labels.

IL-13Rα1 ectodomain (amino acids 1-310), biotinylated (human), sequence (P78552 other isoform, or with tags, fused parts or gaps): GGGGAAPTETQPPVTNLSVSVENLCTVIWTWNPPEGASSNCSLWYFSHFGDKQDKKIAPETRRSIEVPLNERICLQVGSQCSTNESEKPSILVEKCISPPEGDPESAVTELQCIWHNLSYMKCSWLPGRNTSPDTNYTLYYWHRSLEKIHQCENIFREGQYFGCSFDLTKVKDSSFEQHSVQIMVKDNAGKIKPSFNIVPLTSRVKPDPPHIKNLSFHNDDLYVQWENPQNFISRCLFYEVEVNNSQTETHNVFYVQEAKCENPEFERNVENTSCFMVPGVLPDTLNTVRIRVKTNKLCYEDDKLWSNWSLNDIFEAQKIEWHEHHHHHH

Substance “IL-13 variant C4 (from UniProt P35225 34-146)” gave a pKd in assay [1] of 4.44.

In assay [1], “IL-13 variant C11 (from UniProt P35225 34-146)” had a pKd of 5.80.

In assay [2], “wild-type human IL-13 (from UniProt P35225 34-146)” showed a pKd of 8.36.
